Data from paper PMC7509987.
Read-outs that look alike come from different tables or passages of the source.

Tests used:
Assay type in all cases: biochemical
Conditions in all cases: pH 7.0; 22.0 °C
[1] = substrate: NCC[Se][Se]CCN
[2] = substrate: O=C(O)c1cc(SSc2ccc([N+](=O)[O-])c(C(=O)O)c2)ccc1[N+](=O)[O-]
[3] = substrate: NCC[Se][Se]CCN; remark: listed apart in the source
[4] = substrate: O=C(O)c1cc(SSc2ccc([N+](=O)[O-])c(C(=O)O)c2)ccc1[N+](=O)[O-]; remark: listed apart in the source

B1: mTrxRΔ3 (Mus musculus) (protein)
chain: GGQQSFDLLVIGGGSGGLACAKEAAQLGKKVAVADYVEPSPRGTKWGLGGTCVNVGCIPKKLMHQAALLGGMIRDAHHYGWEVAQPVQHNWKTMAEAVQNHVKSLNWGHRVQLQDRKVKYFNIKASFVDEHTVRGVDKGGKATLLSAEHIVIATGGRPRYPTQVKGALEYGITSDDIFWLKESPGKTLVVGASYVALECAGFLTGIGLDTTVMMRSIPLRGFDQQMSSLVTEHMESHGTQFLKGCVPSHIKKLPTNQLQVTWEDHASGKEDTGTFDTVLWAIGRVPETRTLNLEKAGISTNPKNQKIIVDAQEATSVPHIYAIGDVAEGRPELTPTAIKAGKLLAQRLFGKSSTLMDYSNVPTTVFTPLEYGCVGLSEEEAVALHGQEHVEVYHAYYKPLEFTVADRDASQCYIKMVCMREPPQLVLGLHFLGPNAGEVTQGFALGIKCGASYAQVMQTVGIHPTCSEEVVKLHISKRSGLEPTVTG
Km [1]: 1033 ± 114 µM | kcat [1]: 1.27 ± 0.0667 s⁻¹ | kcat/Km [1]: 1220 M⁻¹ s⁻¹ | Km [2]: 12 ± 2.7 µM | kcat [2]: 48.3 ± 8.33 s⁻¹ | kcat/Km [2]: 4e+06 M⁻¹ s⁻¹

B2: mTrxR-CUG (Mus musculus) (protein)
chain: GGQQSFDLLVIGGGSGGLACAKEAAQLGKKVAVADYVEPSPRGTKWGLGGTCVNVGCIPKKLMHQAALLGGMIRDAHHYGWEVAQPVQHNWKTMAEAVQNHVKSLNWGHRVQLQDRKVKYFNIKASFVDEHTVRGVDKGGKATLLSAEHIVIATGGRPRYPTQVKGALEYGITSDDIFWLKESPGKTLVVGASYVALECAGFLTGIGLDTTVMMRSIPLRGFDQQMSSLVTEHMESHGTQFLKGCVPSHIKKLPTNQLQVTWEDHASGKEDTGTFDTVLWAIGRVPETRTLNLEKAGISTNPKNQKIIVDAQEATSVPHIYAIGDVAEGRPELTPTAIKAGKLLAQRLFGKSSTLMDYSNVPTTVFTPLEYGCVGLSEEEAVALHGQEHVEVYHAYYKPLEFTVADRDASQCYIKMVCMREPPQLVLGLHFLGPNAGEVTQGFALGIKCGASYAQVMQTVGIHPTCSEEVVKLHISKRSGLEPTVTGCUG
Km [3]: 79 ± 0.7 µM | kcat [3]: 62.3 ± 7.5 s⁻¹ | kcat/Km [3]: 783000 M⁻¹ s⁻¹ | Km [4]: 3 ± 0.7 µM | kcat [4]: 52.8 ± 7.5 s⁻¹ | kcat/Km [4]: 1.83e+07 M⁻¹ s⁻¹
